Assay results from IntAct's records for PubMed 29611543.

B1: Triggering receptor expressed on myeloid cells 2 (Homo sapiens), Q9NZC2 (parent)
chain: MEPLRLLILLFVTELSGAHNTTVFQGVAGQSLQVSCPYDSMKHWGRRKAWCRQLGEKGPCQRVVSTHNLWLLSFLRRWNGSTAITDDTLGGTLTITLRNLQPHDAGLYQCQSLHGSEADTLRKVLVEVLADPLDHRDAGDLWFPGESESFEDAHVEHSISRSLLEGEIPFPPTSILLLLACIFLIKILAASALWAAAWHGQKPGTHPPSELDCGHDPGYQLQTLPGLRDT

Variants of: B1
Settings: with psn1_human PSEN1, P49768

Variant	effect of a mutation on the interaction
T66M	with no effect
R47H	with no effect
T96K	with no effect
